Measurements published in patent US20190360025A1.

Key:
[1] = target: tumor necrosis factor alpha (TNF-α), R&D Systems 210-TA-005 (UniProt P01375); assay: t-PLA 1X probes, buffer; TNF-α 1.00E-11 M
[2] = target: tumor necrosis factor alpha (TNF-α), R&D Systems 210-TA-005 (UniProt P01375); assay: c-PLA 1X probes, human plasma; TNF-α 1.00E-08 M
[3] = target: tumor necrosis factor alpha (TNF-α), R&D Systems 210-TA-005 (UniProt P01375); assay: c-PLA 10X probes, human plasma; TNF-α 1.00E-12 M
[4] = target: tumor necrosis factor alpha (TNF-α), R&D Systems 210-TA-005 (UniProt P01375); assay: t-PLA 10X probes, human plasma; TNF-α 1.00E-08 M
[5] = target: tumor necrosis factor alpha (TNF-α), R&D Systems 210-TA-005 (UniProt P01375); assay: t-PLA 1X probes, buffer; TNF-α 5.00E-07 M
[6] = target: tumor necrosis factor alpha (TNF-α), R&D Systems 210-TA-005 (UniProt P01375); assay: c-PLA 1X probes, human plasma; TNF-α 1.00E-13 M
[7] = target: tumor necrosis factor alpha (TNF-α), R&D Systems 210-TA-005 (UniProt P01375); assay: c-PLA 1X probes, buffer; TNF-α 1.00E-09 M
[8] = target: tumor necrosis factor alpha (TNF-α), R&D Systems 210-TA-005 (UniProt P01375); assay: t-PLA 10X probes, buffer; TNF-α 1.00E-10 M
[9] = target: tumor necrosis factor alpha (TNF-α), R&D Systems 210-TA-005 (UniProt P01375); assay: t-PLA 10X probes, human plasma; TNF-α 1.00E-09 M
[10] = target: tumor necrosis factor alpha (TNF-α), R&D Systems 210-TA-005 (UniProt P01375); assay: t-PLA 1X probes, human plasma; TNF-α 1.00E-13 M
[11] = target: tumor necrosis factor alpha (TNF-α), R&D Systems 210-TA-005 (UniProt P01375); assay: c-PLA 10X probes, human plasma; TNF-α 5.00E-07 M
[12] = target: tumor necrosis factor alpha (TNF-α), R&D Systems 210-TA-005 (UniProt P01375); assay: c-PLA 1X probes, buffer; TNF-α 5.00E-07 M
[13] = target: tumor necrosis factor alpha (TNF-α), R&D Systems 210-TA-005 (UniProt P01375); assay: c-PLA 10X probes, human plasma; TNF-α 1.00E-08 M
[14] = target: tumor necrosis factor alpha (TNF-α), R&D Systems 210-TA-005 (UniProt P01375); assay: t-PLA, buffer; TNF-α 1.00E-10 M
[15] = target: tumor necrosis factor alpha (TNF-α), R&D Systems 210-TA-005 (UniProt P01375); assay: c-PLA 1X probes, buffer; TNF-α 1.00E-10 M
[16] = target: vascular endothelial growth factor (VEGF), R&D Systems 293-VE-010 (human) (UniProt P15692); assay: t-PLA, human plasma; VEGF 1.00E-08 M
UniProt P15692, sequence (P15692 other isoform, or with tags, fused parts or gaps limits assumed): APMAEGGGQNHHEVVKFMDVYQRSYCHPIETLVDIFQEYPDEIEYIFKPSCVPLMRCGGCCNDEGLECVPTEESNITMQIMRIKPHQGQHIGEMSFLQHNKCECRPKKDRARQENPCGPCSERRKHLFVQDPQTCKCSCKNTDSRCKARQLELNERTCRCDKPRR

[17] = target: vascular endothelial growth factor (VEGF), R&D Systems 293-VE-010 (human) (UniProt P15692); assay: t-PLA, human plasma; VEGF 1.00E-10 M
[18] = target: vascular endothelial growth factor (VEGF), R&D Systems 293-VE-010 (human) (UniProt P15692); assay: t-PLA, buffer; VEGF 1.00E-14 M
[19] = target: vascular endothelial growth factor (VEGF), R&D Systems 293-VE-010 (human) (UniProt P15692); assay: t-PLA, chicken plasma; VEGF 1.00E-14 M
[20] = target: vascular endothelial growth factor (VEGF), R&D Systems 293-VE-010 (human) (UniProt P15692); assay: t-PLA, buffer; VEGF 1.00E-10 M
[21] = target: vascular endothelial growth factor (VEGF), R&D Systems 293-VE-010 (human) (UniProt P15692); assay: t-PLA, buffer; VEGF 1.00E-13 M
[22] = target: vascular endothelial growth factor (VEGF), R&D Systems 293-VE-010 (human) (UniProt P15692); assay: t-PLA, human plasma; VEGF 1.00E-12 M
[23] = target: vascular endothelial growth factor (VEGF), R&D Systems 293-VE-010 (human) (UniProt P15692); assay: c-PLA, buffer; VEGF 1.00E-11 M
[24] = target: vascular endothelial growth factor (VEGF), R&D Systems 293-VE-010 (human) (UniProt P15692); assay: t-PLA, buffer; VEGF 1.00E-08 M
[25] = target: vascular endothelial growth factor (VEGF), R&D Systems 293-VE-010 (human) (UniProt P15692); assay: t-PLA, human plasma; VEGF 1.00E-13 M
[26] = target: vascular endothelial growth factor (VEGF), R&D Systems 293-VE-010 (human) (UniProt P15692); assay: c-PLA, buffer; VEGF 1.00E-13 M
[27] = target: vascular endothelial growth factor (VEGF), R&D Systems 293-VE-010 (human) (UniProt P15692); assay: t-PLA, chicken plasma; VEGF 1.00E-10 M
[28] = target: vascular endothelial growth factor (VEGF), R&D Systems 293-VE-010 (human) (UniProt P15692); assay: t-PLA, buffer; VEGF 1.00E-11 M

UniProt P01375, sequence (P01375 77-233 limits assumed): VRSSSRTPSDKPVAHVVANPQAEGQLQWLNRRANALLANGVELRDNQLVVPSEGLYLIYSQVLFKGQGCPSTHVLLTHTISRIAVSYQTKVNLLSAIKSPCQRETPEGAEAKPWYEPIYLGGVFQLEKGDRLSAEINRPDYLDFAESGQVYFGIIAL

affinity-purified polyclonal anti-TNF-α antibody (R&D Systems AF-210-NA)
Counts [1]: 443000 | Counts [2]: 4770 | SBR [2]: 63 | Counts [3]: 2260 | Counts [4]: 3.81e+08 | SBR [4]: 33 | Counts [5]: 1.33e+08 | Counts [6]: 83.7 | SBR [6]: 1.1 | Counts [7]: 3700 | SBR [7]: 232 | Counts [8]: 2.75e+07 | SBR [8]: 4.8 | Counts [9]: 8.87e+07 | SBR [9]: 7.8 | Counts [10]: 203000 | Counts [11]: 495000 | SBR [11]: 230 | Counts [12]: 33000 | SBR [12]: 2070 | Counts [13]: 158000 | SBR [13]: 73 | SBR [14]: 15.9 | Counts [15]: 260

affinity-purified polyclonal anti-VEGF antibody (R&D Systems AF-293-NA)
Counts [16]: 8.23e+07 | SBR [16]: 51 | Counts [17]: 4.9e+07 | SBR [17]: 30 | Counts [18]: 595000 | SBR [18]: 1.7 | Counts [19]: 71600 | SBR [19]: 1.1 | Counts [20]: 7.59e+08 | SBR [20]: 2190 | Counts [21]: 1.61e+06 | Counts [22]: 2.06e+06 | SBR [22]: 1.3 | Counts [23]: 4820 | SBR [23]: 162 | Counts [24]: 2.5e+09 | SBR [24]: 7230 | Counts [25]: 1.79e+06 | SBR [25]: 1.1 | Counts [26]: 272 | SBR [26]: 9.1 | Counts [27]: 9.58e+07 | SBR [27]: 1430 | Counts [28]: 4.21e+07 | SBR [28]: 122
